# In patent publication US20220289857A1 (Kyowa Kirin, published 2022):
# T1: mouse Fn14 (full length) on transfected 293F cells (mouse, UniProt Q9CR75 28-129)
# T1 sequence: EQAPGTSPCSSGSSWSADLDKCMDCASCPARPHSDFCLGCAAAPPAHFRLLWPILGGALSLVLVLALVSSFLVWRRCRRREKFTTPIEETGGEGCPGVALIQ
# T2: human Fn14 (full length) on cells (human, UniProt Q9NP84 28-129)
# T2 construct: Transfected 293F cells, or endogenous on HK2, HRMC, A375, HaCaT, primary keratinocytes and dermal fibroblasts; also called hFn14; TNFRSF12A
# T2 sequence: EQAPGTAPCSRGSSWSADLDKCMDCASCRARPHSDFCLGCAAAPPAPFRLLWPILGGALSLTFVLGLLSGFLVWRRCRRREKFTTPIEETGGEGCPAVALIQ
# T3: human Fn14 Subdomain 2 peptide (AA51-70), biotinylated (human, added C-terminal Lys carries Ahx-biotin; C-terminal amide)
# T3 peptide: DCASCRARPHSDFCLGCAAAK
# T4: human Fn14 Subdomain 1 peptide (AA30-50), biotinylated (human, added C-terminal Lys carries Ahx-biotin; C-terminal amide)
# T4 peptide: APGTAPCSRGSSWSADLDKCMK
# B1: KO42d mouse monoclonal antibody (hybridoma-derived) (antibody, V domains shown)
# VH: EVQLLQSGPELVKPVASVKMSCKASGYTFTDYNIHWVKQSHGKSLEWIGYINPNNGVTGYNQKFRGKATLTVNRSSNTAYMDLRSLTSEDSAVYYCTRRYGDYVHAMDCWGQGTSVTVSS
# VL: DIQMTQSPSSLSASLGERVSLTCRASQDIGSRLNWLQQEPDGTIKRLIYATSSLDSGVPKRFSGSRSGSDYSLTISSLESEDFVDYYCLQYASSPYTFGGGTKLEIK
# notes: Hybridoma supernatant or purified antibody from an Fn14 knockout mouse; native mouse IgG, kappa
# B2: 41c recombinant mouse IgG1(D265A), kappa antibody (A291/A290) (antibody, V domains shown)
# VH: EVQLQQSGPELVKPGASVKMSCKASGYTFTDYNMHWVKQSHGKSLEWIGYINPNNGGTNYNQKFKGKATLTVNKSSRSAYMEFRSLTSEDSAVYYCASSGWFTYWGQGTLVTVSA
# VL: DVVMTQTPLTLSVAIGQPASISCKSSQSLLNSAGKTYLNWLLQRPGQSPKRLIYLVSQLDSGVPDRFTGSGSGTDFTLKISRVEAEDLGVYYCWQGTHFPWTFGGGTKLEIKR
# B3: R35B9-His Fab (recombinant, bacterial, for crystallization) (Fab, V domains shown)
# VH: EVQLQQSGPELVKPGASVKMSCKASGYIFQDYNMHWVKQSHGKSLEWIGSINPRNGWTNYNQKFKGKATLTVNKSSRSAYMEFRSLTSEDSAVYYCASSGWFTYWGQGTLVTVSA
# VL: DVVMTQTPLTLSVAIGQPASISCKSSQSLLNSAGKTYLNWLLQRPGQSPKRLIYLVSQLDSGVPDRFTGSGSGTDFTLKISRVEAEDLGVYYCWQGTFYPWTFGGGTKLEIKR
# notes: also called R35B9 Fab-His
# What was measured:
# [1] = biological target: T1, mouse Fn14 (full length) on transfected …; experiment: flow cytometry, hybridoma supernatant on 293F cells transfected with mouse Fn14, detected with anti-mouse IgG PE
# Method: FIG. 1 depicts binding of anti-Fn14 hybridoma supernatants to human and mouse Fn14 transfected cells. […] Hybridoma supernatant binding was detected using anti-mouse IgG PE.
# Specifically, the binding activity of hybridoma culture supernatants or purified antibodies to Fn14-expressing cells was evaluated by flow cytometry (FCM). The cell lines evaluated by FCM were Fn14-transfected human embryonic kidney 293F cells (ThermoFisher, cat# R79007) and two cell lines endogenously expressing Fn14, human kidney-derived HK2 cells (ATCC, cat# CRL-2190) and rat kidney-derived NRK-52E cells (Japanese Collection of Research Bioresources Cell Bank (JCRB), cat# IF050480). For FCM analysis, Fn14-expressing cells were harvested using 0.25% trypsin-EDTA (Nacalai Tesque), washed with PBS, and resuspended in SM (Staining Medium: PBS containing 2% FBS, 1 mM EDTA, 0.05% sodium azide). Cells were then seeded in a 96-well plate at 1 ×10⁵ cells per well. Hybridoma supernatant or purified antibody (1 μg/mL final concentration) was added and the cells were incubated at 4° C. for 60 minutes. Cells were then washed with SM, resuspended in goat F(ab′)2 anti-mouse IgG-PE (Southern Biotech Inc.), diluted 1:500 in SM and incubated at 4° C. for 60 minutes. […] Fluorescence intensity was measured by FCM (BD Biosciences, FACS CantoII) and the data were analyzed using FlowJo software (Tomy Digital Biology Co., Ltd.).
# [2] = biological target: T2, human Fn14 (full length) on cells; experiment: flow cytometry on HK2 cells (endogenous human Fn14), purified antibody 1 µg/mL, detected with anti-mouse IgG PE
# Method: (§1) Primary antibodies were used at a concentration of 1 μg/mL and binding was detected using anti-mouse IgG PE.
# (§2) Specifically, the binding activity of hybridoma culture supernatants or purified antibodies to Fn14-expressing cells was evaluated by flow cytometry (FCM). The cell lines evaluated by FCM were Fn14-transfected human embryonic kidney 293F cells (ThermoFisher, cat# R79007) and two cell lines endogenously expressing Fn14, human kidney-derived HK2 cells (ATCC, cat# CRL-2190) and rat kidney-derived NRK-52E cells (Japanese Collection of Research Bioresources Cell Bank (JCRB), cat# IF050480). For FCM analysis, Fn14-expressing cells were harvested using 0.25% trypsin-EDTA (Nacalai Tesque), washed with PBS, and resuspended in SM (Staining Medium: PBS containing 2% FBS, 1 mM EDTA, 0.05% sodium azide). Cells were then seeded in a 96-well plate at 1 ×10⁵ cells per well. Hybridoma supernatant or purified antibody (1 μg/mL final concentration) was added and the cells were incubated at 4° C. for 60 minutes. Cells were then washed with SM, resuspended in goat F(ab′)2 anti-mouse IgG-PE (Southern Biotech Inc.), diluted 1:500 in SM and incubated at 4° C. for 60 minutes. Cells were washed with SM and finally resuspended in 50 μL of SM. Fluorescence intensity was measured by FCM (BD Biosciences, FACS CantoII) and the data were analyzed using FlowJo software (Tomy Digital Biology Co., Ltd.).
# [3] = biological target: T5, rat Fn14, endogenous on NRK-52E cells (rat, UniProt Q9CR75 28-129 (mouse entry)); experiment: flow cytometry on NRK-52E cells (endogenous rat Fn14), purified antibody 1 µg/mL, detected with anti-mouse IgG PE
# T5 construct: Endogenous protein of rat kidney cells; also called NRK52E-A15/Luc cells
# Method: as §1, §2
# [4] = biological target: T2, human Fn14 (full length) on cells; experiment: cell-based or functional assay
# [5] = biological target: T3, human Fn14 Subdomain 2 peptide …; experiment: biolayer interferometry (ForteBio Octet); biotinylated peptide on streptavidin biosensor, response at 120 s of association
# Method: (§3) A ForteBio Octet Qke instrument (ForteBio) was used to measure the ability of purified antibodies to bind Fn14 peptides. The assays were performed at 30° C. in 96-well half area plates (Grenier, cat# 675076), with agitation set to 1000 rpm, in kinetic buffer (provided in the assay kit) to minimize nonspecific interactions. Biosensor tips were equilibrated in kinetic buffer for 600 s prior to use. Soluble biotinylated peptides (20 μg/ml, Subdomain 1 (AA30-50): […]-[K-Ahx-biotin]-amide (SEQ ID NO: 182) and Subdomain 2 (AA51-70): […]-[K-Ahx-biotin]-amide (SEQ ID NO: 183) synthesized by 21′ Century Biochemicals) in kinetic buffer were immobilized on streptavidin-coated biosensors (ForteBio, cat# 18-5020) for 300 seconds. […] Purified antibodies (20 μg/m1) were allowed to bind the immobilized peptides. Association was measured for 300 seconds, using the high sensitivity kinetics setting. To characterize the binding properties of the antibody candidates, the response (nm) at t =120 seconds from the start of the association step was recorded. All values were compared to a control sample (isotype antibody).
# [6] = biological target: T4, human Fn14 Subdomain 1 peptide …; experiment: biolayer interferometry (ForteBio Octet); biotinylated peptide on streptavidin biosensor, antibody in solution, response at 120 s of association
# Method: as §3
# [7] = biological target: T6, untagged human Fn14 extracellular domain (aa 28-75), SUMO-cleaved (human, UniProt Q9NP84 28-75); experiment: co-crystal structure
# T6 construct: Electron density seen for residues 32-68; also called Fn14 (crystallization)
# Method: Purified Fn14 and His-tagged 41c Fab or R35B9 Fab proteins were mixed in a 1:1 stoichiometric ratio, concentrated to 1 mg/mL and then subjected to crystallization. Initial crystallization trials were performed in a 96-well format using a nano-liter dispensing liquid handling robot (Phoenix, Art Robbins Ltd.) while mixing 0.15 μL protein with 0.15 μL precipitant from different commercially available crystallization screens (JCSG core+and JCSG core 1 screens). Over 200 crystallization conditions were tested using the sitting drop vapor diffusion method and crystallization trails were carried out at both 4° C. and 22° C. Optimization of all crystallization conditions was performed manually by both hanging drop and sitting drop methods. Crystals were obtained in various conditions containing PEG 3350 or PEG 6000 as the common precipitant and were grown over 3 days. […]
# The structure had good geometry with 4 residues (0.89%) as outliers and 97.6% residues in favored region of the Ramachandran plot. Correspondingly, the structure of Fn14 -R35B9-His Fab complex was determined by molecular replacement using the phase information obtained from Fn14-41c-His Fab complex and the structure was refined to 2.3 Å with residual factors R/Rfree=20.9/23.3.
binder,measurement,setting,value
B1,binding result,[1],binds
same,binding result,[2],binds
same,binding result,[3],binds
B2,"ICAM-1 MFI on HRMC, 250 ng/mL rhTWEAK, mAb 0.1 µg/mL",[4],13100 MFI
same,binding result,[5],no binding (tested: 20 µg/mL)
same,binding result,[6],binds
B3,binding result,[7],binds
